Measured values from publication PMC4364632, “Engineering a fungal peroxidase that degrades lignin at very acidic pH” (Biotechnology for Biofuels, 2014).
Changes are numbered by the printed parent chain. In names and notes the source's numbering stands.

Legend:
VP1 [1] = test system: T1, VP1; assay: dimeric coerulignone formation at […] nm, steady-state kinetics; type: biochemical, Pleurotus ostreatus; conditions: 0.1 mM H2O2, 0.1 M tartrate pH 3.5, 25°C; biphasic, high-efficiency site (catalytic Trp)
T1 construct: mature protein, signal peptide removed, untagged in pET23a

VP1 [2] = test system: T1, VP1; assay: ABTS cation radical formation at […] nm, steady-state kinetics; type: biochemical, Pleurotus ostreatus; conditions: 0.1 mM H2O2, 0.1 M tartrate pH 3.5, 25°C; biphasic, high-efficiency site (catalytic Trp)
VP1 [3] = test system: T1, VP1; assay: veratraldehyde formation at […] nm, steady-state kinetics; type: biochemical, Pleurotus ostreatus; conditions: 0.1 mM H2O2, 0.1 M tartrate pH 3.0, 25°C
VP1 [4] = test system: T1, VP1; assay: RB5 disappearance at […] nm, steady-state kinetics; type: biochemical, Pleurotus ostreatus; conditions: 0.1 mM H2O2, 0.1 M tartrate pH 3.5, 25°C
purified protein [5] = substrate: CCn1c(=NN=c2sc3cc(S(=O)(=O)O)ccc3n2CC)sc2cc(S(=O)(=O)O)ccc21; assay: purified protein; type: biochemical, Gelatoporia subvermispora; conditions: 0.1 mM H2O2, 0.1 M tartrate pH 3.5, 25°C
purified protein [6] = substrate: COc1ccccc1OC(CO)C(O)c1cc(OC)c(OC)c(OC)c1; assay: purified protein; type: biochemical, Gelatoporia subvermispora; conditions: 0.1 mM H2O2, 100 mM BR buffer pH 3.0, 25°C, unit doubtful: printed kcat/Km (s^-1.mM^-1) implies mM
purified protein [7] = substrate: COc1ccc(CO)cc1OC; assay: purified protein; type: biochemical, Gelatoporia subvermispora; conditions: 0.1 mM H2O2, 0.1 M tartrate pH 3.0, 25°C
purified protein [8] = substrate: Nc1c(N=Nc2ccc(S(=O)(=O)CCOS(=O)(=O)O)cc2)c(S(=O)(=O)O)cc2cc(S(=O)(=O)O)c(N=Nc3ccc(S(=O)(=O)CCOS(=O)(=O)O)cc3)c(O)c12; assay: purified protein; type: biochemical, Gelatoporia subvermispora; conditions: 0.1 mM H2O2, 0.1 M tartrate pH 3.5, 25°C
purified protein [9] = substrate: CCn1c(=NN=c2sc3cc(S(=O)(=O)O)ccc3n2CC)sc2cc(S(=O)(=O)O)ccc21; assay: purified protein; type: biochemical, Phanerodontia chrysosporium; conditions: 0.1 mM H2O2, 0.1 M tartrate pH 3.5, 25°C
purified protein [10] = substrate: COc1cccc(OC)c1O; assay: purified protein; type: biochemical, Phanerodontia chrysosporium; conditions: 0.1 mM H2O2, 0.1 M tartrate pH 3.5, 25°C
purified protein [11] = substrate: COc1ccc(CO)cc1OC; assay: purified protein; type: biochemical, Phanerodontia chrysosporium; conditions: 0.1 mM H2O2, 0.1 M tartrate pH 3.0, 25°C

COc1cccc(OC)c1O [2,6-dimethoxyphenol] was tested. Which Km (VP1 [1]) did it give?
Its Km is 54 ± 4 µM.

How did the Km (VP1 [2]) turn out when CCn1c(=NN=c2sc3cc(S(=O)(=O)O)ccc3n2CC)sc2cc(S(=O)(=O)O)ccc21 [2,2'-azino-bis(3-ethylbenzothiazoline-6-sulfonate)] was run?
Its Km is 4 ± 0.4 µM.

For COc1ccc(CO)cc1OC [veratryl alcohol], which Km (VP1 [3]) is on record?
The Km was 5500 ± 46 µM.

Nc1c(N=Nc2ccc(S(=O)(=O)CCOS(=O)(=O)O)cc2)c(S(=O)(=O)O)cc2cc(S(=O)(=O)O)c(N=Nc3ccc(S(=O)(=O)CCOS(=O)(=O)O)cc3)c(O)c12 [Reactive Black 5] was tested. Which Km (VP1 [4]) did it give?
Its Km is 5.4 ± 0.2 µM.

B1: MnP6 (Gelatoporia subvermispora B; S171W/S189W) (protein)
chain: APTAVCSDGTRVSNAVCCDFVSLGQDLQSMVLQGDCGEDAHEIIRLTFHDAVAISRKLGPSAGGGADGSMLLFPLVEPEFAASNGIDDSVNNLIPFLSLHPTISAGDLVQFAGAVALSNCPGAPRVQFLAGRPNHTIAAIDGLIPEPQDNVTWILERFDDAGGFTPFEVVWLLASHTIARADKVDPTLDAAPFDTTPFTFDSQIFLEVLLKGVGFPGLDNNTGEVSSPLPLGDTSTGGKDTGLMRLQSDFALAHDPRTACFWQGFVDQQEFMSQSFASAFAKLAVLGHNTDDLIDCSEVVPVPKPAVDKPTTFPATTGPQDLELSCLAERFPTLSVDPGAQETLIPHCSDGLENCTSVQFSGPATDSP
notes: mature protein, signal peptide removed, untagged in pET23a; S168W and S168W-environment variants
Which results are given for B1?
Km (purified protein [5]): 60.2 ± 13.4 µM; kcat (purified protein [5]): 1.4 ± 0.1 s⁻¹; kcat/Km (purified protein [5]): 23000 ± 3000 M⁻¹ s⁻¹; Km (purified protein [6]): 0.0049 ± 0.0013 mM; Km (purified protein [7]): 2740 ± 560 µM; kcat (purified protein [7]): 0.54 ± 0.04 s⁻¹; kcat/Km (purified protein [7]): 197 M⁻¹ s⁻¹; Km (purified protein [8]): 12.6 ± 3 µM; kcat (purified protein [8]): 7.8 ± 1.1 s⁻¹; kcat/Km (purified protein [8]): 619000 ± 27000 M⁻¹ s⁻¹

B2: LiP-H8 (Phanerodontia chrysosporium) (protein)
chain: ATCSNGKTVGDASCCAWFDVLDDIQQNLFHGGQCGAEAHESIRLVFHDSIAISPAMEAQGKFGGGGADGSIMIFDDIETAFHPNIGLDEIVKLQKPFVQKHGVTPGDFIAFAGRVALSNCPGAPQMNFFTGRAPATQPAPDGLVPEPFHTVDQIINRVNDAGEFDELELVWMLSAHSVAAVNDVDPTVQGLPFDSTPGIFDSQFFVETQLRGTAFPGSGGNQGEVESPLPGEIRIQSDHTIARDSRTACEWQSFVNNQSKLVDDFQFIFLALTQLGQDPNAMTDCSDVIPQSKPIPGNLPFSFFPAGKTIKDVEQACAETPFPTLTTLPGPETSVQRIPPPPGA
How did the Km (purified protein [9]) turn out when B2 was run?
Its Km is 23.0 ± 1.6 µM.

What about the kcat (purified protein [9]) of the same molecule?
The kcat was 13 ± 0.2 s⁻¹.

And the kcat/Km (purified protein [9])?
The kcat/Km was 563000 ± 36000 M⁻¹ s⁻¹.

And the Km (purified protein [10])?
The Km was 5.8 ± 0.5 µM.

What about the kcat (purified protein [10]) of the same molecule?
Its kcat is 10 ± 0.1 s⁻¹.

And the kcat/Km (purified protein [10])?
The kcat/Km was 1.72e+06 ± 153000 M⁻¹ s⁻¹.

What about the Km (purified protein [11]) of the same molecule?
Its Km is 190 ± 17 µM.

And the kcat (purified protein [11])?
Its kcat is 17.5 ± 0.5 s⁻¹.

And the kcat/Km (purified protein [11])?
The kcat/Km was 92000 ± 6000 M⁻¹ s⁻¹.

B3: MnP6 (Gelatoporia subvermispora B; F279E/F283M/F289K/Q292N/S171W/S189W/S293R/S296G/T183S) (protein)
chain: B1 chain with T165S, F261E, F265M, F271K, Q274N, S275R, S278G
notes: as for B1
For B3, which Km (purified protein [7]) is on record?
The Km was 21600 ± 200 µM.

What about the kcat (purified protein [7]) of the same molecule?
The kcat was 1.69 ± 0.04 s⁻¹.

And the kcat/Km (purified protein [7])?
Its kcat/Km is 78 M⁻¹ s⁻¹.

What about the Km (purified protein [8]) of the same molecule?
The Km was 5.4 ± 3 µM.

And the kcat (purified protein [8])?
Its kcat is 7 ± 1.1 s⁻¹.

And the kcat/Km (purified protein [8])?
The kcat/Km was 1.31e+06 ± 100000 M⁻¹ s⁻¹.
